For experiment [1], the target named is T1, Bio-His-FIKK13 (Plasmodium falciparum 3D7, biotin (site not stated)).
T1 construct: also called His-bio-FIKK13; PfFIKK13
Nature of the experiment: SPR; single-cycle kinetics, Biacore S200, Biotin CAPture kit; Bio-His-FIKK13 immobilised (about 1,400 RU), peptides as analytes; 50 mM Tris pH 7.5, 250 mM NaCl, 2 mM DTT, 10 mM MgCl2, 1.5 µM ADP, 0.02% Tween, 0.1% DMSO; 25 °C; 100 s contact time. Conditions: both partners purified.

In experiment [2] the target is T2, Bio-His-FIKK13 (P. falciparum, biotin (site not stated)).
T2 construct: also called His-bio-FIKK13; biotinylated FIKK13
The experiment is described as follows: SPR; Bio-His-FIKK13 immobilised (Biotin CAPture kit, about 1,400 RU), Biacore S200, single-cycle kinetics, 100 s contact time, 25 °C, 50 mM Tris pH 7.5, 250 mM NaCl, 2 mM DTT, 10 mM MgCl2, 1.5 µM ADP, 0.02% Tween, 0.1% DMSO. Conditions: both partners purified. In general terms: SPR reads the build-up and loss of mass on a sensor chip optically.

Broadly, the Kd is the free concentration of one partner at which half of the binding sites on the other are occupied at equilibrium, for simple one-to-one binding. A low value points to tighter binding.

B1: FIKK13_4_S7AY10A (peptide)
chain: YPLRFLAVKAHCG
modifications: D-tyrosine at position 1; cyclised via a thioether bond between the N-terminus and the cysteine side chain; C-terminal amide
On to B1, for which, in the experiment with Bio-His-FIKK13 [1], the Kd was above 10000 nM.

B2: FIKK13_4 (peptide)
chain: YPLRFLSKYHCG
modifications: D-tyrosine at the N-terminus; cyclised via a thioether bond between the N-terminus and the cysteine side chain; C-terminal amide
In the case of B2, in the experiment with Bio-His-FIKK13 [2], the Kd was 17 nM. That is a double-digit nanomolar value.
